Data taken from patent US20170224771A1, “HISTATINS AS THERAPEUTIC AGENTS FOR OCULAR SURFACE DISEASE” (RAPID PATHOGEN SCREENING, INC., priority 2014, published 2017).

Assays:
MMP-9 = MMP-9 (Homo sapiens, UniProt P14780); settings: host protease; according to Gusman; cited from earlier work
MMP-2 = target: T1, MMP-2 (Homo sapiens, UniProt P08253); settings: host protease; according to Gusman; cited from earlier work
T1 sequence (P08253 110-660): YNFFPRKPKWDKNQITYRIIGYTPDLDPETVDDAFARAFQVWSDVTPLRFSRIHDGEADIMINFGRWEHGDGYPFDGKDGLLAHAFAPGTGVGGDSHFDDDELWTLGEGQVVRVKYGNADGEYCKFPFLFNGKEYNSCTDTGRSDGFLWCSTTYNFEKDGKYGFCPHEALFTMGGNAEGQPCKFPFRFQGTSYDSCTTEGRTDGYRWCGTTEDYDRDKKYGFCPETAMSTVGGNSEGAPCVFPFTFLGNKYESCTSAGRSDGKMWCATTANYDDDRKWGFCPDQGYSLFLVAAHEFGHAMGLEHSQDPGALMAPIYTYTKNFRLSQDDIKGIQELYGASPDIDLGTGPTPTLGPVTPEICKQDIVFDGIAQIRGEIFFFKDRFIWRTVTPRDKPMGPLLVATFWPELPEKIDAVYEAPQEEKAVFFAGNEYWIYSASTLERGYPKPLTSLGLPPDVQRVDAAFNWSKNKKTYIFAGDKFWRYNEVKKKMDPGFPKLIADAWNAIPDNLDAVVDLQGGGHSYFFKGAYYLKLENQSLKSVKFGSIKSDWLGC

[1] = Stability of ocular histatin formulation, determined by mass spectroscopy; type: physicochemical; settings: 100 μg/mL in commercially-available gel tears lubricating eye drop with 0.25% PEG in aqueous buffered borate salt solution
Experimental: In some embodiments, the ocular histatin formulation is stable both at room temperature (25° C.) and at 45° C. for at least 90 days.

[2] = tested on: cultured ocular epithelial cells; settings: cultured ocular epithelial cells in vitro; cited from earlier work

Chain of MMP-9 (P14780 94-707): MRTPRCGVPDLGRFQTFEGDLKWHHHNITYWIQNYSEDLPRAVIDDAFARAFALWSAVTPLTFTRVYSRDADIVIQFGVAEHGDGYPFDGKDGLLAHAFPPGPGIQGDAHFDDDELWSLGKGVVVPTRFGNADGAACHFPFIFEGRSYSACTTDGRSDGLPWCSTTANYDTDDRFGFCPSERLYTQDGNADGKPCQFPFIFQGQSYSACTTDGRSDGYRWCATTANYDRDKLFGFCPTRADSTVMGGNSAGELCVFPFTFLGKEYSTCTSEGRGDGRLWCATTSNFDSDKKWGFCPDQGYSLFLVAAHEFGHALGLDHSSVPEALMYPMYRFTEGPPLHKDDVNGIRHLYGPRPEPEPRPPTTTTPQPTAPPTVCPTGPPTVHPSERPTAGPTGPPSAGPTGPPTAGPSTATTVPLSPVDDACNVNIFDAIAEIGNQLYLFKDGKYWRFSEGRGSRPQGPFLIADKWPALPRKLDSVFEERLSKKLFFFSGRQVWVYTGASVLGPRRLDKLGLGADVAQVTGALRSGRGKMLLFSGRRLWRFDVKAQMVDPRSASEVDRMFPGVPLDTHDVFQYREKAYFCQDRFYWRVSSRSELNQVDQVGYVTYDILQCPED

## histatin 5: naturally occurring oral salivary peptide; SEQ ID NO: 30 peptide
MMP-9
  inhibition of MMP-9 activity: greatly inhibited
MMP-2
  inhibition of MMP-2 activity: greatly inhibited

## cyclized histatin 1: sortase cyclized histatin (including all of Histatin 1) (GGDSHEKRHHGYRRKFHEKHHSHREFPFYGDYGSNYLYDNLPET; sortase cyclization)
[1]; 25° C.
  time found to be stable: at least 505 days
[1]; 45° C.
  time found to be stable: at least 90 days

## Benzalkonium chloride
[2]
  cytotoxicity: significant cytotoxicity
